Values joined by “and” are separate entries in the source; they are usually repeats but may differ in a detail not shown here. Equal values may be shown once.
Tests used:
[1] = molecular target: full length (mature) cynomolgus monkey TSLP, recombinant (cynomolgus monkey); test: SPR, biotinylated TSLP on SA chip; value excluding 1000 nM concentration
[2] = molecular target: full length (mature) cynomolgus monkey TSLP, recombinant (cynomolgus monkey); test: SPR, biotinylated TSLP on SA chip; all concentrations (footnote 2)
[3] = molecular target: full length (mature) cynomolgus monkey TSLP, recombinant (cynomolgus monkey); test: ELISA RBA, geometric mean
[4] = molecular target: full length (mature) cynomolgus monkey TSLP, recombinant (cynomolgus monkey); test: cell-based or functional assay
[5] = molecular target: full length (mature) cynomolgus monkey TSLP, recombinant (cynomolgus monkey); test: SPR, biotinylated TSLP on SA chip (Biacore 4000)
[6] = molecular target: full length (mature) cynomolgus monkey TSLP, recombinant (cynomolgus monkey); test: SPR with biotinylated TSLP; mean of two experiments
[7] = molecular target: full length (mature) cynomolgus monkey TSLP, recombinant (cynomolgus monkey); test: RBA, geometric mean (n = 2)
[8] = molecular target: pre-existing human anti-VK (HAVK) antibodies; test: MSD bridging immunoassay: biotinylated and ruthenylated dAb cross-linked by antibodies in 5% serum of healthy subjects; rate over donors

IC50 [3] [nM] | pSTAT5 assay in SW756 cells, Geometric Mean IC50 [4] [nM] | Kd [5] [nM] | Binder | further results
0.36 | 1.6 | – | DOM30h-440-57 (protein) VL: DIQMTQSPSSLSASVGDRVTITCRASRPIRNWLDWYQQKPGKAPELLIWGASHLQSGVPSRFSGSGSGTDFTLTISSLQPEDFATYYCMQIGDDPVTFGQGTKVEIKR | Kd [1]: 1.92 nM; Kd [2]: 4.95 nM
2.65 | 11.2 | 7.81 | DOM30h-440-60 (protein) VL: DIQMTQSPSSLSASVGDRVTITCRASRPIRNWLDWYQQKPGKAPKLLIWGASHLQSGVPSRFSGSGSGTDFTLTISSLQPEDFATYYCIQFGEDPVTFGQGTKVEIKR | –
0.55 | 3.12 | 1.61 | DOM30h-440-55 (protein) VL: DIQMTQSPSSLSASVGDRVTITCRASRPIRNWLDWYQQKPGKAPKLLIWGASHLQSGVPSRFSGSGSGTDFTLTISSLQPEDFATYYCVQIGEDPVTFGQGTKVEIKR | –
0.29 | 3.8 | 3.11 | DOM30h-440-65 (protein) VL: DIQMTQSPSSLSASVGDRVTITCRASRPIRNWLDWYQQKPGKAPKLLIWGASHLQSGVPSRFSGSGSGTDFTLTISSLQPEDFATYYCMQIGEDPVTFGQGTKVEIKR | –
0.21 | 3.43 | 3.42 | DOM30h-440-58 (protein) VL: DIQMTQSPSSLSASVGDRVTITCRASRPIRNWLDWYQQKPGKAPKLLIWGASHLQSGVPSRFSGSGSGTDFTLTISSLQPEDFATYYCLQIADDPVTFGQGTKVEIKR | –
0.67 | 2.45 | 6.24 | DOM30h-440-54 (protein) VL: DIQMTQSPSSLSASVGDRVTITCRASRPIRNWLDWYQQKPGKAPKLLIWGASHLQSGVPSRFSGSGSGTDFTLTISSLQPEDFATYYCWQLAFDPTTFGQGTKVEIKR | –
1.3 | 7.28 | 5.79 | DOM30h-440-53 (protein) VL: DIQMTQSPSSLSASVGDRVTITCRASRPIRNWLDWYQQKPGKAPKLLIWGASHLQSGVPSRFSGSGSGTDFTLTISSLQPEDFATYYCLQVGEDPVTFGQGTKVEIKR | –
0.87 | 3.36 | 4.29 | DOM30h-440-64 (protein) VL: DIQMTQSPSSLSASVGDRVTITCRASRPIRNWLDWYQQKPGKAPKLLIWGASHLQSGVPSRFSGSGSGTDFTLTISSLQPEDFATYYCLQIGEDPVTFGQGTKVEIKR | –
0.55 | 4.74 | 2.97 | DOM30h-440-56 (protein) VL: DIQMTQSPSSLSASVGDRVTITCRASRPIRNWLDWYQQKPGKAPKLLIWGASHLQSGVPSRFSGSGSGTDFTLTVSSLQPEDFATYYCMQIGEDPVTFGQGTKVEIKR | –
0.83 | 2.4 | 5.98 | DOM30h-440-63 (protein) VL: DIQMTQSPSSLSASVGDRVTITCRASRPIRNWLDWYQQKPGKAPKLLIWGASHLQSGVPSRFSGSGSGTDFTLTISSLQPEDFATYYCMQIGSDPVTFGQGTKVEIKR | –
– | – | – | DOM30h-440-81/86 (protein) VL: DIQMTQSPSSLSASVGDRVTITCRASRPIRNWLDWYQQKPGKAPKLLIWGASHLQSGVPSRFSGSGSGTDFTLTISSLQPEDFATYYCVQIGEDPVTFGQGTKVEIK | Kd [6]: 0.511 nM and 0.51 nM; koff [6]: 0.000774 s⁻¹; kon [6]: 1.62e+06 M⁻¹ s⁻¹; IC50 [7]: 2.05 nM; Inhibition of TSLP-induced pSTAT5 in SW756 cells, Geometric Mean IC50 (n = 5) [4]: 4 nM; frequency of sera giving a positive signal (above the assay cutpoint) [8]: 6.7%

Reference: patent US20170260266A1
